# Assay results from patent US20250147051A1, “METHOD FOR DETECTING A TAU PROTEIN IN A SALIVA SAMPLE” (GTINVENT LIMITED, priority 2022, published 2025).
# Legend:
# [1] = molecular target: full length human tau protein 2N4R (hT40) (human) (UniProt P10636); test: Simoa 3-step sandwich, S1D12 capture beads, biotinylated BT2 detector, recombinant hTau40 standard curve; fifth of 8 cells of a shifted row
# [2] = molecular target: full length human tau protein 2N4R (hT40) (human) (UniProt P10636); test: Simoa 3-step sandwich, S1D12 capture beads, biotinylated HT7 detector, recombinant hTau40 standard curve; fourth of 8 cells of a shifted row
# [3] = molecular target: full length human tau protein 2N4R (hT40) (human) (UniProt P10636); test: Simoa 3-step sandwich, BT2 capture beads, biotinylated HT7 detector, recombinant hTau40 standard curve; sixth of 8 cells of a shifted row
# [4] = molecular target: full length human tau protein 2N4R (hT40) (human) (UniProt P10636); test: Simoa 3-step sandwich, BT2 capture beads, biotinylated Tau12 detector, recombinant hTau40 standard curve; first of 8 cells of a shifted row, read in the order of the assay heads
# [5] = molecular target: full length human tau protein 2N4R (hT40) (human) (UniProt P10636); test: Simoa, Tau12 on beads, biotinylated HT7 detector
# [6] = molecular target: full length human tau protein 2N4R (hT40) (human) (UniProt P10636); test: Simoa 3-step sandwich, S1D12 capture beads, biotinylated Tau12 detector, recombinant hTau40 standard curve; third of 8 cells of a shifted row
# [7] = molecular target: full length human tau protein 2N4R (hT40) (human) (UniProt P10636); test: Simoa 3-step sandwich, S1D12 capture beads, biotinylated Tau46 detector, recombinant hTau40 standard curve; seventh of 8 cells of a shifted row
# Chain of full length human tau protein 2N4R (hT40) (human) (P10636 other isoform, or with tags, fused parts or gaps limits assumed): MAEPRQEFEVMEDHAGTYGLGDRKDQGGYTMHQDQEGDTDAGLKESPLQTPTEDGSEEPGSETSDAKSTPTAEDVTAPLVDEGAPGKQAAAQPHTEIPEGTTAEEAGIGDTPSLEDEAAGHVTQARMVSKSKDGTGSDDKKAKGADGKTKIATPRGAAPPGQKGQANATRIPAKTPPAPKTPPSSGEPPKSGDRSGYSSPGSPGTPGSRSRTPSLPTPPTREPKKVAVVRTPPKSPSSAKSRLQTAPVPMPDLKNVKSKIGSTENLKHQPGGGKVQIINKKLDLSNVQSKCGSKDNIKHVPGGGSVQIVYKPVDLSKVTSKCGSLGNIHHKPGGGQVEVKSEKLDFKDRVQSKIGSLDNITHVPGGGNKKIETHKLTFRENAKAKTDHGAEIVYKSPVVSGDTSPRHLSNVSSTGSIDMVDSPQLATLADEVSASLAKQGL
substance,measurement,setting,value
BT2 (antibody),Assay limit of detection,[1],10.8 pg/mL
HT7 (antibody),Assay limit of detection,[2],0.25 pg/mL
same,Assay limit of detection,[3],0.25 pg/mL
Tau12 mAb (antibody),Assay limit of detection,[4],0.25 pg/mL
same,Simoa limit of detection,[5],2.2 pg/mL
same,Assay limit of detection,[6],0.25 pg/mL
Tau46 (antibody),Assay limit of detection,[7],2.2 pg/mL
